pKd: −log10 of the molar value.

Chain of AAVR (Q8IZA0 whole entry): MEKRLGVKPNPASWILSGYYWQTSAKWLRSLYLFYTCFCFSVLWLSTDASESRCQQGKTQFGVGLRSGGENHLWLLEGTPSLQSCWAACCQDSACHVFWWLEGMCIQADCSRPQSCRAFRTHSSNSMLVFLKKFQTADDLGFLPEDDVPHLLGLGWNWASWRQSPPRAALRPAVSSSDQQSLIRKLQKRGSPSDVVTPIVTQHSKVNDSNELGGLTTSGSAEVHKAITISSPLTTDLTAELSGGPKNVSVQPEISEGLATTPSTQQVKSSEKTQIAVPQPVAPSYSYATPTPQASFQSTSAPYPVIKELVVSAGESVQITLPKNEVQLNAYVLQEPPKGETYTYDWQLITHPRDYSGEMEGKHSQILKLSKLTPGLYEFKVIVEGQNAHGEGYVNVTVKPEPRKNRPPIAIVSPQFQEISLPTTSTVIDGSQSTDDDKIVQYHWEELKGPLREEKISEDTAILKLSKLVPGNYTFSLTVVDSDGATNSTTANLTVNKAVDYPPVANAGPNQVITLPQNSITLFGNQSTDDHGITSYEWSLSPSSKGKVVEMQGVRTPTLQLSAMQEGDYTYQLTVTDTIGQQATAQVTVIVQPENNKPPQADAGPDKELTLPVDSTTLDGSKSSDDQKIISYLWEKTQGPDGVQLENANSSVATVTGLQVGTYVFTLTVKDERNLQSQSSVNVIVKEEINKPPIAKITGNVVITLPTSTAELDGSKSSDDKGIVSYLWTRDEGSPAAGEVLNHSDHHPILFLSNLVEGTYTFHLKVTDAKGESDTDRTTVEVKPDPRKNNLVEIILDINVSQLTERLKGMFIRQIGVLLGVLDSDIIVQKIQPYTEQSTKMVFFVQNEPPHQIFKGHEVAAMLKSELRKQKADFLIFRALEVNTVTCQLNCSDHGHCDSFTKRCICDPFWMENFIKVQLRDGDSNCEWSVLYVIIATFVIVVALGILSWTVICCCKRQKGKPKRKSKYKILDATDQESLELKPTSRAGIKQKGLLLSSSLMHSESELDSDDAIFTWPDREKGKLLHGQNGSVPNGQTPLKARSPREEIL

The target of one experiment is AAV2 capsid (Adeno-associated virus 2) (UniProt P03135).
Experiment: not given
To be noted: cited from earlier work.
On to AAVR (from UniProt Q8IZA0), for which the negative-log Kd (pKd) (in general, the Kd on a negative log10 scale, so that one unit is a factor of ten) is 7.24.

The next experiment addresses Adeno-associated virus receptor (AAVR), wild-type, PKD1-5 domains (UniProt Q8IZA0).
Experiment: not given
Conditions: not given
As to “AAV5 particle with capsid mutation Q532A (from UniProt Q9YIJ1 1-724) (complex)”, the transduction of HEK293T cells (endogenous AAVR) by the mutated AAV5-GFP, functional titer against wt AAV5 is 50 % of wt AAV5.
Take “AAV5 particle with capsid mutation Y542A (from UniProt Q9YIJ1 1-724) (complex)”: the transduction of HEK293T cells (endogenous AAVR) by the mutated AAV5-GFP, functional titer against wt AAV5 is 15 % of wt AAV5.
For “AAV5 particle with capsid mutation E708A (from UniProt Q9YIJ1 1-724) (complex)”, the transduction of HEK293T cells (endogenous AAVR) by the mutated AAV5-GFP, functional titer against wt AAV5 is 50 % of wt AAV5.

For a further experiment, the target named is Adeno-associated virus 1 (AAV1) particle, wild-type capsid (adeno-associated virus 1 (AAV1)) (UniProt Q9WBP8).
Experiment: not given
Conditions: not given
Substance “AAVR PKD1-5 T434A (from UniProt Q8IZA0-1 1-1049) (receptor)” displayed an AAV1-mCherry transduction of AAVR-silenced HEK293T cells expressing AAVR with this mutation (pcDNA3.1(+)-AAVR) (% of AAV1 infection) of 70.
The same measure, in the same setting: the same measure for “AAVR PKD1-5 D435A (from UniProt Q8IZA0-1 1-1049) (receptor)”: 70.

The target is the same in another experiment. Description: SPR; Biacore T200; AAV1 or AAV5 particles immobilised on a CM5 chip by amide coupling; wt or mutated AAVR flowed over; 30 μl/min, 25 °C, PBS.
Conditions: not given
“AAVR PKD1-5 K464A (from UniProt Q8IZA0-1 1-1049) (receptor)” showed a pKd of 8.88.
As for “Adeno-associated virus receptor (AAVR), wild-type, PKD1-5 domains (from UniProt Q8IZA0-1 1-1049)”, the pKd is 7.86.

The next experiment deals with Adeno-associated virus 5 (AAV5) particle, wild-type capsid (adeno-associated virus 5 (AAV5)) (UniProt Q9YIJ1). The experiment is described as above.
Conditions: not given
“AAVR PKD1-5 S356A (from UniProt Q8IZA0-1 1-1049) (receptor)” displayed a fold decrease of binding affinity against wt AAVR of 100 fold.
In turn, “AAVR PKD1-5 K399A (from UniProt Q8IZA0-1 1-1049) (receptor)” had a pKd of 4.14.
“AAVR PKD1-5 T397A (from UniProt Q8IZA0-1 1-1049) (receptor)” returned a fold decrease of binding affinity against wt AAVR of 100 fold.
Substance “Adeno-associated virus receptor (AAVR), wild-type, PKD1-5 domains (from UniProt Q8IZA0-1 1-1049)” gave a negative logarithm of the Kd (pKd) of 6.54.
As to “AAVR PKD1-5 D354A (from UniProt Q8IZA0-1 1-1049) (receptor)”, the fold decrease of binding affinity against wt AAVR amounted to 100 fold.
As to “AAVR PKD1-5 I349A (from UniProt Q8IZA0-1 1-1049) (receptor)”, the negative-log Kd (pKd) is 8.15.

The target of a further experiment is recombinant AAV5 particles (AAV5 capsid) (adeno-associated virus 5) (UniProt Q9YIJ1). Description: SPR; Biacore T200; AAV1 or AAV5 particles immobilised on a CM5 chip by amide coupling (sodium acetate pH 4.5); wt or mutated AAVR flowed over at 30 ul/min, 25 C, PBS; triplicate experiments, mean with standard error.
Conditions: not given
For orientation: In SPR one partner is held on a chip, and binding of the other changes the refractive index at the surface.
As for “AAVR PKD1-5 K438A (from UniProt Q8IZA0-1 1-1049) (domain or fragment)”, the pKd was 6.57.
On the same count and under the same terms, the same measure for “AAVR PKD1-5 S425A (from UniProt Q8IZA0-1 1-1049) (domain or fragment)”: 6.48; for “AAVR PKD1-5 S431A (from UniProt Q8IZA0-1 1-1049) (domain or fragment)”: 6.61; for “AAVR PKD1-5 D429A (from UniProt Q8IZA0-1 1-1049) (domain or fragment)”: 6.61.
For the substance “AAVR PKD1-5 D436A (from UniProt Q8IZA0-1 1-1049) (domain or fragment)”, the pKd is 6.53.
Still for that read-out and setting: the same measure for “AAVR PKD1-5 D435A (from UniProt Q8IZA0-1 1-1049) (domain or fragment)”: 6.63; for “AAVR PKD1-5 D437A (from UniProt Q8IZA0-1 1-1049) (domain or fragment)”: 6.60; for “AAVR PKD1-5 S433A (from UniProt Q8IZA0-1 1-1049) (domain or fragment)”: 6.55.
Still for that read-out and setting: the same measure for “AAVR PKD1-5 V427A (from UniProt Q8IZA0-1 1-1049) (domain or fragment)”: 6.51; for “AAVR PKD1-5 K464A (from UniProt Q8IZA0-1 1-1049) (domain or fragment)”: 6.58; for “AAVR PKD1-5 T434A (from UniProt Q8IZA0-1 1-1049) (domain or fragment)”: 6.54.
Still for that read-out and setting: the same measure for “AAVR PKD1-5 Y442A (from UniProt Q8IZA0-1 1-1049) (domain or fragment)”: 6.57; for “AAVR PKD1-5 T426A (from UniProt Q8IZA0-1 1-1049) (domain or fragment)”: 6.51.

The target of another experiment is recombinant AAV1 particles (AAV1 capsid) (adeno-associated virus 1) (UniProt Q9WBP8). The experiment is described as above.
Conditions: not given
For the substance “AAVR PKD1-5 K399A (from UniProt Q8IZA0-1 1-1049) (domain or fragment)”, the pKd was 7.76.
The same measure, in the same setting: in the case of “wild-type AAVR PKD1-5 domains with a C-terminal His-tag (from UniProt Q8IZA0-1 1-1049) (domain or fragment)” it was 7.79; in that of “AAVR PKD1-5 D354A (from UniProt Q8IZA0-1 1-1049) (domain or fragment)”, 7.76; in that of “AAVR PKD1-5 E378A (from UniProt Q8IZA0-1 1-1049) (domain or fragment)”, 7.70.
On the same count and under the same terms, the same measure for “AAVR PKD1-5 S356A (from UniProt Q8IZA0-1 1-1049) (domain or fragment)”: 7.91; for “AAVR PKD1-5 I349A (from UniProt Q8IZA0-1 1-1049) (domain or fragment)”: 7.73.
Still for that read-out and setting: in the case of “AAVR PKD1-5 T397A (from UniProt Q8IZA0-1 1-1049) (domain or fragment)” it was 7.75.
In the case of “AAVR PKD1-5 T350A (from UniProt Q8IZA0-1 1-1049) (domain or fragment)”, the pKd is 7.85.
On to “AAVR PKD1-5 L376A (from UniProt Q8IZA0-1 1-1049) (domain or fragment)”, for which the pKd was 7.78.
Turning to “AAVR PKD1-5 R353A (from UniProt Q8IZA0-1 1-1049) (domain or fragment)”, the pKd is 7.69.

The values above are taken from PMC6704107.
